Data reported in the supplement of paper PMC10567573.

B1: EPB41L3 (parent)
chain: SELGDYDPDECGSDYISEFRFAPN
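Further: lentivirally expressed fusions sorted by FACS into six bins by GFP to DsRed ratio, PSI derived from sequencing read proportions per bin multiplied by bin number.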

Variants of: B1
Assay: protein stability index of a GFP-peptide fusion (GPS, HEK-293T) (PSI 1-6); higher = more stable
Settings: c terminus: a fixed tail appended
In the case of SELGCYDPDECGSDYISEFRFAPN, the protein stability index is reported as 2.06. For SELGRYDPDECGSDYISEFRFAPN, the protein stability index was 2.05. For SELGHYDPDECGSDYISEFRFAPN, the protein stability index was 1.79. Variant SELGWYDPDECGSDYISEFRFAPN has a protein stability index of 1.74. Work on SELGKYDPDECGSDYISEFRFAPN yielded a protein stability index of 2.17. Work on SELGAYDPDECGSDYISEFRFAPN yielded a protein stability index of 1.96. SELGGYDPDECGSDYISEFRFAPN gave a protein stability index of 2.26. With SELGTYDPDECGSDYISEFRFAPN the protein stability index was 2.03. For SELGEYDPDECGSDYISEFRFAPN, the protein stability index was 1.7. Variant SELGNYDPDECGSDYISEFRFAPN has a protein stability index of 1.99. SELGPYDPDECGSDYISEFRFAPN gave a protein stability index of 2.35. Variant SELGFYDPDECGSDYISEFRFAPN has a protein stability index of 1.68. In the case of SELGQYDPDECGSDYISEFRFAPN, the protein stability index is reported as 1.75. With SELGMYDPDECGSDYISEFRFAPN the protein stability index was 1.71. In the case of SELGVYDPDECGSDYISEFRFAPN, the protein stability index is reported as 1.51. In the case of SELGIYDPDECGSDYISEFRFAPN, the protein stability index is reported as 1.87. For SELGSYDPDECGSDYISEFRFAPN, the protein stability index was 1.75. SELGLYDPDECGSDYISEFRFAPN showed a protein stability index of 1.92. YELGDYDPDECGSDYISEFRFAPN showed a protein stability index of 3.03. With EELGDYDPDECGSDYISEFRFAPN the protein stability index was 2.29. Work on MELGDYDPDECGSDYISEFRFAPN yielded a protein stability index of 2.8. LELGDYDPDECGSDYISEFRFAPN showed a protein stability index of 2.02. In the case of VELGDYDPDECGSDYISEFRFAPN, the protein stability index is reported as 2.25. For KELGDYDPDECGSDYISEFRFAPN, the protein stability index was 2.35. In the case of TELGDYDPDECGSDYISEFRFAPN, the protein stability index is reported as 2.5. Variant FELGDYDPDECGSDYISEFRFAPN has a protein stability index of 1.86. Work on HELGDYDPDECGSDYISEFRFAPN yielded a protein stability index of 1.67. In the case of PELGDYDPDECGSDYISEFRFAPN, the protein stability index is reported as 1.89. For WELGDYDPDECGSDYISEFRFAPN, the protein stability index was 1.53. In the case of QELGDYDPDECGSDYISEFRFAPN, the protein stability index is reported as 2.87. For DELGDYDPDECGSDYISEFRFAPN, the protein stability index was 2.43. CELGDYDPDECGSDYISEFRFAPN showed a protein stability index of 1.88. With GELGDYDPDECGSDYISEFRFAPN the protein stability index was 1.99. In the case of RELGDYDPDECGSDYISEFRFAPN, the protein stability index is reported as 1.85. For NELGDYDPDECGSDYISEFRFAPN, the protein stability index was 1.81. AELGDYDPDECGSDYISEFRFAPN showed a protein stability index of 1.81. Variant IELGDYDPDECGSDYISEFRFAPN has a protein stability index of 1.71. SEAGDYDPDECGSDYISEFRFAPN gave a protein stability index of 2.05. SEKGDYDPDECGSDYISEFRFAPN gave a protein stability index of 1.74. With SERGDYDPDECGSDYISEFRFAPN the protein stability index was 2.03. In the case of SETGDYDPDECGSDYISEFRFAPN, the protein stability index is reported as 2.2. For SEFGDYDPDECGSDYISEFRFAPN, the protein stability index was 2.36. For SEHGDYDPDECGSDYISEFRFAPN, the protein stability index was 1.74. Variant SEYGDYDPDECGSDYISEFRFAPN has a protein stability index of 1.9. SEVGDYDPDECGSDYISEFRFAPN showed a protein stability index of 2.33. In the case of SEMGDYDPDECGSDYISEFRFAPN, the protein stability index is reported as 2.02. SENGDYDPDECGSDYISEFRFAPN showed a protein stability index of 2.22. With SEPGDYDPDECGSDYISEFRFAPN the protein stability index was 2.27. In the case of SEWGDYDPDECGSDYISEFRFAPN, the protein stability index is reported as 1.91. For SEQGDYDPDECGSDYISEFRFAPN, the protein stability index was 2.46. SEEGDYDPDECGSDYISEFRFAPN gave a protein stability index of 1.88. In the case of SESGDYDPDECGSDYISEFRFAPN, the protein stability index is reported as 2.67. With SEGGDYDPDECGSDYISEFRFAPN the protein stability index was 2.05. For SEIGDYDPDECGSDYISEFRFAPN, the protein stability index was 2.02. For SECGDYDPDECGSDYISEFRFAPN, the protein stability index was 2.15. With SEDGDYDPDECGSDYISEFRFAPN the protein stability index was 2.66. In the case of SELPDYDPDECGSDYISEFRFAPN, the protein stability index is reported as 2.23. SELIDYDPDECGSDYISEFRFAPN gave a protein stability index of 1.95. Variant SELDDYDPDECGSDYISEFRFAPN has a protein stability index of 2.35. SELLDYDPDECGSDYISEFRFAPN showed a protein stability index of 2. SELMDYDPDECGSDYISEFRFAPN gave a protein stability index of 2.12. Work on SELRDYDPDECGSDYISEFRFAPN yielded a protein stability index of 2.67. SELQDYDPDECGSDYISEFRFAPN showed a protein stability index of 2. In the case of SELVDYDPDECGSDYISEFRFAPN, the protein stability index is reported as 2.06. In the case of SELCDYDPDECGSDYISEFRFAPN, the protein stability index is reported as 1.94. SELWDYDPDECGSDYISEFRFAPN showed a protein stability index of 1.7. For SELFDYDPDECGSDYISEFRFAPN, the protein stability index was 1.79. SELSDYDPDECGSDYISEFRFAPN gave a protein stability index of 2.19. Work on SELHDYDPDECGSDYISEFRFAPN yielded a protein stability index of 1.67. SELEDYDPDECGSDYISEFRFAPN gave a protein stability index of 2.43. Variant SELADYDPDECGSDYISEFRFAPN has a protein stability index of 2.56. SELYDYDPDECGSDYISEFRFAPN showed a protein stability index of 2.12. With SELKDYDPDECGSDYISEFRFAPN the protein stability index was 2.18. For SELTDYDPDECGSDYISEFRFAPN, the protein stability index was 2.39. With SELNDYDPDECGSDYISEFRFAPN the protein stability index was 1.9. In the case of SWLGDYDPDECGSDYISEFRFAPN, the protein stability index is reported as 1.77. STLGDYDPDECGSDYISEFRFAPN showed a protein stability index of 1.56. SCLGDYDPDECGSDYISEFRFAPN showed a protein stability index of 2.19. Work on SDLGDYDPDECGSDYISEFRFAPN yielded a protein stability index of 1.79. SLLGDYDPDECGSDYISEFRFAPN gave a protein stability index of 1.77. SALGDYDPDECGSDYISEFRFAPN showed a protein stability index of 1.61. SYLGDYDPDECGSDYISEFRFAPN showed a protein stability index of 2.07. Variant SSLGDYDPDECGSDYISEFRFAPN has a protein stability index of 1.68. Work on SMLGDYDPDECGSDYISEFRFAPN yielded a protein stability index of 1.81. With SGLGDYDPDECGSDYISEFRFAPN the protein stability index was 1.03. Work on SILGDYDPDECGSDYISEFRFAPN yielded a protein stability index of 1.7. For SNLGDYDPDECGSDYISEFRFAPN, the protein stability index was 2.03. SKLGDYDPDECGSDYISEFRFAPN showed a protein stability index of 1.94. For SVLGDYDPDECGSDYISEFRFAPN, the protein stability index was 2.04. SQLGDYDPDECGSDYISEFRFAPN showed a protein stability index of 1.9. SHLGDYDPDECGSDYISEFRFAPN showed a protein stability index of 1.9. SFLGDYDPDECGSDYISEFRFAPN showed a protein stability index of 2.14. SRLGDYDPDECGSDYISEFRFAPN showed a protein stability index of 1.85. In the case of SPLGDYDPDECGSDYISEFRFAPN, the protein stability index is reported as 2.54.
